How the values were obtained:
[1] = target: Evasin-3 (HEK) (Rhipicephalus sanguineus) (UniProt P0C8E8); assay: SPR
Evasin-3 (HEK) (Rhipicephalus sanguineus), sequence (P0C8E8 21-86): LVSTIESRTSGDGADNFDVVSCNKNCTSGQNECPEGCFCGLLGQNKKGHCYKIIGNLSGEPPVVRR

Evasin-3 (E. coli), sequence (P0C8E8 21-86): as above

Kd [1] [nM] | IC50 of inhibition of CXCL8-induced chemotaxis of neutrophils in vitro (CXCL8 (human)) [nM] | Substance
0.7 | – | CXCL8 (ligand)
– | 3.35 | Evasin-3 (E. coli) (from UniProt P0C8E8 21-86) (natural protein)

— publication PMC2526197
